{"source": "paper PMC3425544", "about": "“The S100A10 Subunit of the Annexin A2 Heterotetramer Facilitates L2-Mediated Human Papillomavirus Infection” (PLoS ONE, 2012)", "molecules": {"B1": {"name": "secretory leukocyte protease inhibitor (protein)", "chain": "SGKSFKAGVCPPKKSAQCLRYKKPECQSDWQCPGKKRCCPDTCGIKCLDPVDTPNPTRRKPGKCPVTYGQCLMLNPPNFCEMDGQCKRDLKCCMGMCGKSCVSPVKA", "notes": "endogenous annexin A2 ligand"}}, "key": {"[1]": {"test_system": "HPV16 PsV infection of HeLa cells", "test": "HPV16 PsV infection of HeLa cells (GFP, flow cytometry)", "type": "cell-based, human", "settings": "presence of FBS during SLPI incubation and PsV infection; data not shown", "procedure": "(§1) HeLa cells (ATCC, Manassas, VA) are human epithelial cells derived from cervical cancer, and were maintained in complete media (IMDM, 10% FBS, 1X PenStrep) at 37°C with 5% CO2 (Lonza, Walkersville, MD). HaCaT cells (Cell Lines Service, Eppelheim, Germany) are in vitro spontaneously transformed human keratinocytes derived from histologically normal skin [75] and were maintained in Defined Keratinocyte Serum-Free Media (KSFM) (Invitrogen, Carlsbad, CA) with manufacturer provided KSFM growth supplement (including insulin, EGF, and FGF) at 37°C with 5% CO2.\nWildtype HPV16 pseudovirions containing GFP reporter were produced by cotransfection of 293TT cells with plasmids encoding codon-optimized HPV16 L1 and L2 and a GFP reporter plasmid (pCIneoGFP) following published procedures. The infectious titer of PsV preparations (in infectious units/mL) was determined by flow cytometric analysis of 293TT cells treated with varying doses of PsV vector stock. […] Confirmation and quantitation of reporter plasmid DNA encapsidation was performed using quantitative real-time PCR following plasmid DNA isolation from pseudovirion preparations by phenol chloroform extraction and ethanol precipitation. L1 content was quantitated by Coomassie Blue staining next to BSA standards following SDS-PAGE. The infectious titer of L2 mutant PsV were determined on 293TT cells as described above for WT PsV. […]"}, "[2]": {"test_system": "HPV16 PsV infection of HeLa cells", "settings": "PsV infectivity, FBS present; ref [38]; cited from earlier work", "procedure": "SLPI has shown anti-bacterial and anti-fungal activity aside from its noted anti-protease activity (reviewed in [68]). […] Concentrations in cervical mucosal fluids are commonly reported at 1 µg/ml, but are likely to be more concentrated at the cell surface. In addition, SLPI levels in cervical mucus have been measured midcycle as high as ..."}, "[3]": {"test_system": "HPV16 PsV infection of HaCaT cells", "test": "HPV16 PsV infection of HaCaT cells (GFP, flow cytometry)", "type": "cell-based, human", "procedure": "as §1\nWildtype HPV16 pseudovirions containing GFP reporter were produced by cotransfection of 293TT cells with plasmids encoding codon-optimized HPV16 L1 and L2 and a GFP reporter plasmid (pCIneoGFP) following published procedures. The infectious titer of PsV preparations (in infectious units/mL) was determined by flow cytometric analysis of 293TT cells treated with varying doses of PsV vector stock. Neutralization of PsV were validated in infection assays via pre-incubation with H16.V5 or H16.E70 prior to cellular exposure, and minimal infection rates of less than 1% were observed. To produce pseudovirions with a mutated L2 (108–126) region, site-directed mutagenesis was performed using overlapping mutated primers on the bicistronic packaging HPV16 pseudovirion plasmid p16sheLL as a template. Forward primer 5′-[…]-3′ and reverse primer 5′-[…]-3′ encoding the amino acid substitution of GGDD for LVEE in the L2 capsid region aa 108–111 were used with the QuikChange II XL Site-Directed Mutagenesis Kit (Stratagene, Cedar Creek, TX) according to manufacturer’s instructions. The entire L1 and L2 ORFs of the resulting plasmid were sequenced to confirm mutagenesis of the 108–111 aa L2 region and that no other unexpected mutations were introduced. HPV16 L1–L2(GGDD) PsV containing GFP reporter plasmid were produced as described above for wildtype HPV16 PsV. Confirmation and quantitation of reporter plasmid DNA encapsidation was performed using quantitative real-time PCR following plasmid DNA isolation from pseudovirion preparations by phenol chloroform extraction and ethanol precipitation. L1 content was quantitated by Coomassie Blue staining next to BSA standards following SDS-PAGE. The infectious titer of L2 mutant PsV were determined on 293TT cells as described above for WT PsV.\nHaCaT cells seeded at 3×10^4 cells/well or HeLa cells seeded at 2×10^4 cells/well were incubated overnight in 24-well plates at 37°C. The cells were subsequently incubated with wildtype HPV16 PsV containing a pCIneo-GFP vector at an MOI 100 for HaCaT or MOI of 1 for HeLa. The MOIs were chosen for each cell type that achieved 15–25% GFP-positive cells. Infectivity was scored 48 h post infection by enumerating GFP+ cells by flow cytometry. […]"}, "[4]": {"test_system": "A2t", "test": "ELISA binding to immobilised A2t", "parameters": "species or system human", "settings": "500 ng A2t coated, 400 ng PsV, H16.V5 or anti-SLPI detection", "procedure": "For assays to determine accessibility of L2_108–120 epitope on capsid surface, 96-well Microlon ELISA plates (USA Scientific, Ocala, FL) were incubated with 500 ng of HPV16 L1 VLP, HPV16 L1L2 VLP or HPV16 PsV in 100 µL PBS overnight at 4°C. The plate was washed with PBST ([…]) and blocked with 200 µL of PBS containing 3% BSA for 2 h at RT. The plate was washed with PBST and incubated with 1∶1000 16L2.4B4 (anti-L2_108–120) or 1∶5000 H16.V5 (anti-L1) in PBST with 1% BSA for 2 h at RT. The plate was washed and incubated with 1∶5000 rabbit-anti-mouse HRP in PBST with 1% BSA for 1 h at RT. The plate was washed, and 100 µL of the HRP substrate (o-phenylenediamine) was added. The absorbance was measured at 490 nm with a Hidex Chameleon plate reader. In control experiments, no VLP or PsV were added, and stained with primary, secondary, or both antibodies and minimal absorbance was seen. For assays to determine in vitro binding capacity of HPV16 capsids to purified A2t protein, 500 ng of purified A2t was coated separately on ELISA plates overnight at 4°C. […] Bound PsV were detected with conformational anti-L1 H16.V5 antibody, followed by anti-mouse IgG HRP antibody conjugate. Bound SLPI was detected with goat anti-SLPI antibody, followed by anti-goat IgG HRP antibody conjugate and addition of substrate."}, "[5]": {"test_system": "HSV", "settings": "ref [33]; cited from earlier work", "source_text": "Nonetheless, the link between HSV and H ..."}, "[6]": {"test_system": "HIV-1", "settings": "macrophages; ref [34]; cited from earlier work", "source_text": "A particular local immune event that has been well studied in the context of HPV infection is mucosal co-infection with herpes simplex virus (HSV). Historically, in the 1960s and 1970s, HSV-2 infection was thought to be a possible causative agent for cervical cancer, [31]. However, the role of HSV-2 in cervical cancer began to be questioned when HSV-2 DNA was not consistently found in cervical cancer tissues. Subsequently, HPV DNA was detected in the overwhelming majority of cervical cancer tissue and determined to be the causative agent. […] To test this hypothesis, the effect of SLPI and antibody inhibition of A2t on HPV16 infection of epithelial cel ..."}}, "note": "Entries after “also recorded” stand apart in the source; their conditions may differ."}
{"molecule": "B1", "values": [{"measurement": "PsV infection, presence of FBS", "setting": "[1]", "value": "no reduced infection; also recorded: eliminated the blocking effect of SLPI completely"}, {"measurement": "HPV16 infection of HeLa, SLPI in presence of FBS", "setting": "[2]", "value": "no reduction in HPV16 infection"}, {"measurement": "pseudo-infection, 25 µg/mL", "setting": "[3]; 25 µg/mL SLPI vs negative and BSA controls, serum free", "value": "significant decrease in pseudo-infection"}, {"measurement": "pseudo-infection, 50 µg/mL", "setting": "[3]; 50 µg/mL SLPI vs negative and BSA controls, serum free", "value": "pseudo-infection further decreased"}, {"measurement": "decrease in pseudo-infection", "setting": "[3]; 25–50 µg/mL SLPI, 1 h at 4°C prior to PsV, serum free, vs untreated HaCaT cells, 48 h", "value": "60–80%"}, {"measurement": "SLPI inhibition of HPV16 infection", "setting": "[3]; HaCaT cells, discussion", "value": "can inhibit HPV16 infection"}, {"measurement": "binding to A2t (absorbance at 490 nm)", "setting": "[4]", "value": "significant binding"}, {"measurement": "inhibition of HSV infection", "setting": "[5]", "value": "inhibit HSV infection"}, {"measurement": "inhibition of HIV-1 infection", "setting": "[6]", "value": "inhibit HIV-1 infection of macrophages; also recorded: inhibits the infection of HIV-1"}]}
